Experimental data: patent publication US20250206839A1, “METHODS, COMPOSITIONS AND USES FOR SEMA7A MONOCLONAL ANTIBODIES” (THE REGENTS OF THE UNIVERSITY OF COLORADO, A BODY CORPORATE, priority 2022, published 2025)

Biological target: T1, purified SEMA7A (Homo sapiens, UniProt O75326)
T1 construct: Fc; made in house; host or cells: cells stably transfected with SEMA7A-Fc plasmid (human breast cancer cells); purified from medium
T1 sequence (O75326 45-648 limits assumed): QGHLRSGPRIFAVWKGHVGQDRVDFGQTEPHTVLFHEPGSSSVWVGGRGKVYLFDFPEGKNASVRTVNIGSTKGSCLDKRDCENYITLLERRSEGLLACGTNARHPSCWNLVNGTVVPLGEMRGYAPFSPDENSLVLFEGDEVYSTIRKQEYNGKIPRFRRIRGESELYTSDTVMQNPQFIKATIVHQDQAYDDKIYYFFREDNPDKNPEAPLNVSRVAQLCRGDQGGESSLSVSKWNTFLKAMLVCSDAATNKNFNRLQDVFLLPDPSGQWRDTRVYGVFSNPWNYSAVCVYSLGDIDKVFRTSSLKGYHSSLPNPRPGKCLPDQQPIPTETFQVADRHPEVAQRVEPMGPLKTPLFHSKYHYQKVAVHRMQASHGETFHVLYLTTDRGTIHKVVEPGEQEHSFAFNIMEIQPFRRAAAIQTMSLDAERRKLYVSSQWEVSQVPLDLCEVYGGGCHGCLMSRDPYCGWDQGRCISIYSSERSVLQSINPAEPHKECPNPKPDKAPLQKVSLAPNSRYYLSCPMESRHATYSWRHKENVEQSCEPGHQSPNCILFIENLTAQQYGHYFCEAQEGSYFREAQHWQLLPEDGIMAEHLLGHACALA
Assay: ELISA binding to purified SEMA7A
Protocol: The MultiSorp ELISA 96 well ELISA plate (Thermo Scientific) was coated with 100 μl per well of 50 μg/ml of purified SEMA7A in Coating Buffer A (Thermo Scientific CB07100) and allowed to attach overnight with gentle rocking at 4 degrees. For the peptide competition, half of the antibody was incubated in an Eppendorf tube overnight at a ratio of 1:10 with the SEMA7A peptide on a rotator at 4 degrees. The plate was washed with 200 μl per well of 1× wash buffer (Thermo Scientific WB01) and blocked with 200 μl 1× assay buffer (Thermo Scientific DS98200) for 2 hours and room temp with gentle rocking. 1× assay buffer was removed and a 200 μl serial dilution of SMEA7A mAb in 1× assay buffer was made from columns 1 through 9, with column 10-12 getting 1× assay buffer only. The plate was incubated overnight with gentle rocking at 4 degrees. The plate was washed twice with 200 μl of 1× wash buffer. 100 μl of 200 ng/ml Goat Anti-Mouse IgG HRP (Abcam 97040) in 1× assay buffer was added to columns 1-11, with column 12 getting 1× assay buffer only. The plate was incubated for 2 hours with gentle rocking at room temp. The plate was washed four times with 200 μl 1× wash buffer. 150 μl SuperSignal Femto for ELISA (Thermo Scientific) was mixed 1:1 added to each well and mixed for 1 min and then left to rock at room temperature for 30 minutes. The absorbance was read at 425 nm on a microplate reader.

binding to purified SEMA7A in presence of immunizing peptide (10× immunizing peptide): blocked this ability
B1: recombinant anti-SEMA7A monoclonal antibody: recombinant anti-SEMA7A monoclonal antibody; illustrative recombinant heavy chain SEQ ID NO: 28, light chain SEQ ID NO: 29 (antibody)
heavy: EVQLQQSGTVLARPGASVKMSCKASGYSFTSYWMHWVKQRPGQGLEWIGAIYPGNSDTSYNQKFKGKAKLTAVTSASTAYMELSSLTNEDSAVYYCTRGGAPTMITAYYAMDYWGQGTSVTVSSAKTTPPSVYPLAPGSAAQTNSMVTLGCLVKGYFPEPVTVTWNSGSLSSGVHTFPAVLQSDLYTLSSSVTVPSSTWPSETVTCNVAHPASSTKVDKKIVPRDCGCKPCICTVPEVSSVFIFPPKPKDVLTITLTPKVTCVVVDISKDDPEVQFSWFVDDVEVHTAQTQPREEQFNSTFRSVSELPIMHQDWLNGKEFKCRVNSAAFPAPIEKTISKTKGRPKAPQVYTIPPPKEQMAKDKVSLTCMITDFFPEDITVEWQWNGQPAENYKNTQPIMDTDGSYFVYSKLNVQKSNWEAGNTFTCSVLHEGLHNHHTEKSLSHSPGK
light: DIQMTQTTSSLSASLGDRVTISCRASQDISNYLNWYQQKPDGTVKLLIYYTSRLHSGVPSRFSGSGSGTDYSLTISNLEQEDIATYFCQQGNTLPWTFGGGTKLEIKRADAAPTVSIFPPSSEQLTSGGASVVCFLNNFYPKDINVKWKIDGSERQNGVLNSWTDQDSKDSTYSMSSTLTLTKDEYERHNSYTCEATHKTSTSPIVKSFNRNEC
binding to purified SEMA7A (serial dilution): bound to purified SEMA7A in a dose dependent manner
